Results published in patent publication US20240082356A1, “TREATMENT OF COPD BY STIMULATION OF STEM CELL MOBILIZATION” (Therapeutic Solutions International, Inc., priority 2022, published 2024).

Tested on: neutrophil infiltration in COPD like inflammation
Experiment: Neutrophil infiltration in elastase-induced COPD model
Type: in vivo
Conditions: female BALB/c mice injected with elastase (5 micrograms per mouse); G-CSF 10 micrograms per mouse every second day for one week and pterostilbene 40 mg/kg intraperitoneally; assessed on days 0, 7 and 14
Description: Female BALB/c mice, 10 per group, where injected with elastase (5 micrograms per mouse) to induce COPD like inflammation. Mice were given G-CSF (10 micrograms per mouse) every second day for one week and pterostilbene (40 mg/kg) intraperitoneally. Mice were sacrificed on days 0, 7, and 14 and assessed for neutrophil infiltration.

B1: G-CSF: stem cell mobilizer; colony stimulating factor (protein, UniProt P09919 31-207, looked up)
Granulocyte …: TPLGPASSLPQSFLLKCLEQVRKIQGDGAALQEKLVSECATYKLCHPEELVLLGHSLGIPWAPLSSCPSQALQLAGCLSQLHSGLFLYQGLLQALEGISPELGPTLDTLQLDVADFATTIWQQMEELGMAPALQPTQGAMPAFASAFQRRAGGVLVASHLQSFLEVSYRVLRHLAQP
  neutrophil infiltration in COPD Model: reduction of neutrophil infiltration
